Reference: patent US11149077B2, “Targeted therapeutics based on engineered proteins for tyrosine kinases receptors, including IGF-IR” (BRISTOL-MYERS SQUIBB COMPANY, priority 2006, dated 2021)

What was measured:
human IGF-IR = target: T1, human IGF-IR (Homo sapiens, UniProt P08069); assay: Surface plasmon resonance (BIAcore) binding kinetics and affinity on immobilized IGF-IR
T1 construct: The extracellular domain of human IGF-IR (aa 1-932) was cloned into a mammalian expression vector; made in house
Experimental: The binding kinetics of fibronectin-based scaffold proteins binding proteins to the target was measured using BIAcore 2000 or 3000 biosensors (Pharmacia Biosensor). A capture assay was developed utilizing an IGF-IR-Fc fusion. A similar reagent had been described by Forbes et al. (Forbes et al. 2002, European J. Biochemistry, 269, 961-968). The extracellular domain of human IGF-IR (aa 1-932) was cloned into a mammalian expression vector containing the hinge and constant regions of human IgG1. Transient transfection of the plasmid produced a fusion protein, IGF-IR-Fc which was subsequently purified by Protein A chromatography and captured on Protein A immobilized on Biasensor CM5 chips by amine coupling. The kinetic analysis involved the capture of IGF-IR-Fc on Protein A followed by injection of the fibronectin-based scaffold protein in solution and regeneration of the Protein A surface by glycine pH 2.0. Sensorgrams were obtained at each concentration and were evaluated using a program Biaevaluation, BIA Evaluation 2.0 (BIAcore), to determine the rate constants ka (kon) and kd (koff) The dissociation constant, KD was calculated from the ratio of rate constants koff/kon. Typically, a concentration series (2 uM to 0 uM) of purified fibronectin-based scaffold protein was evaluated for binding to protein A captured human IGF-IR-Fc fusion protein.

[1] = Differential scanning calorimetry (thermal stability, Tm); format: physicochemical; conditions: DSC
Experimental: Differential Scanning calorimetry (DSC) analysis of midscaled clones was performed to determine thermal stability. A 1 mg/ml solution of appropriate clone was scanned in a N-DSC II calorimeter (calorimetry Sciences Corp) by ramping the temperature from 5° C. to 95° C. at a rate of 1 degree per minute under 3 atm pressure. The data was analyzed vs. a control run of the appropriate buffer using a best fit using Orgin Software (OrginLab Corp).

[2] = Size-exclusion chromatography (solution properties, monomericity); format: physicochemical
Experimental: Size-exclusion chromatography (SEC) was performed using a TSKgel Super SW2000 column (TOSOH Biosciences, LLC), 4.6 mm×30 cm, on an Agilent 1100 HPLC system with UV detection at A214 nm and A280 nm and with fluorescence detection (excitation=280 nm, emission=350 nm). A buffer of 100 mM sodium sulfate, 100 mM sodium phosphate, 150 mM sodium chloride, pH 6.8 at a flow rate of 100 μL/min was employed. Samples (0.1 to 1 μg each) at a concentration of approximately 100 μg/mL were injected separately. Gel filtration standards (Bio-Rad Laboratories, Hercules, Calif.) were used for molecular weight calibration.

RH41 sarcoma xenografts = assay: In vivo antitumor activity in RH41 sarcoma xenografts; conditions: for % TGI: calculated on day 39; for LCK: gross log cell kill; for AVE weight change: Day 20 to Day 42
Experimental: *Tumor growth inhibition and probability values calculated on day 39. ^aVehicle was 80% PEG400, 20% dH2O. ^bVehicle was PBS. ^cAverage weight change for each group is the mean difference between weight at the start of treatment (Day 20) and after the end of treatment (Day 42). TVDT was calculated for a size of 500 mg Abbreviations used are as follows: po, oral route; ip, intraperitoneal route; LCK, gross log cell kill calculated as LCK=T−C/(3.32×TVDT) where T-C is the difference in time in days for the treated tumors (T) to reach a predetermined size (tumor target size) relative to the vehicle control group (C) divided by the tumor volume doubling time (TVDT) multiplied by 3.32.
Tumors were propagated in nude mice. Tumor passages occurred every four weeks for human RH41 xenografts. With regard to efficacy testing human tumor xenografts were implanted in nude mice. All tumor passages were subcutaneous (sc).
Antitumor activity was evaluated in terms of: a) cures, and for the murine tumor models, increases in lifespan reflected by the relative median survival time (MST) of treated (T) versus control (C) groups (i.e. % T/C values); and b) primary tumor growth inhibition determined by calculating the relative median times for T and C mice to grow tumors of a predetermined “target” size (1 gm for all sc tumor models described) and expressed as T-C values, in days. The definition of a cured mouse was one whose tumor was undetectable, or <35 mg, when assessed more than 10 tumor volume doubling times (TVDTs) post-treatment. The activity criterion for tumor inhibition/reduction was a statistically significant delay in primary tumor growth consistent with 1 gross log cell kill (LCK). The following formula was employed to calculate LCK: LCK=T−C/(3.32×TVDT)
Where, TVDT=median time (days) for control tumors to reach target size—median time (days) for control tumors to reach half the target size. […] The maximum tolerated dose (MTD) is defined as the dose level immediately […] which excessive toxicity (i.e. more than one death) occurred. […] Statistical evaluations of data were performed using Gehan's generalized Wilcoxon test (Gehan, Biometrika 52:203-223, 1965). Western Blot Analysis of 385A08-Fc

human insulin receptor = target: T2, human insulin receptor (Homo sapiens, UniProt P06213); assay: BIAcore binding to immobilized human insulin receptor; conditions: percentage of signal for insulin binding at similar concentration
T2 construct: purchased R&D Systems (Minneapolis, Minn.)
Experimental: One liter E. coli growths of selected optimized clones were prepared and the proteins were purified.
In brief, 60 ug/mL of IR diluted in acetate 4.5 was coupled/immobilized to a level of 8300 RU and 11.9 ug/mL of VEGF-R2-Fc diluted in acetate 5.0 was immobilized to a level of 9700 RU on flow cells 2 and 3. A blank reference surface was prepared on FC1. […] Fibronectin-based scaffold proteins were diluted to 10 uM in HBS-EP (10 mM Hepes 150 mM NaCl 3 mM EDTA 0.05% Surfactant P20) and injected at 20 uL/min for 3 minutes over the flow cells at 25 C and dissociation was observed over 10 mins.

[3] = Table 4, optimized 218C04 clones
[4] = Table 7, FG loop optimized 338A06 clones

Molecule	ka (human IGF-IR; [3])	kd (human IGF-IR; [3])	Tm ([1]; Table 3)	ka (human IGF-IR; [4])	kd (human IGF-IR; [4])	Tm ([1]; Table 9)	% IR Binding at 10 μM (human insulin receptor; Table 8)	other results
338A05 (protein) VSDVPRDLEVVAATPTSLLISWSDSLKVSRYYRITYGETGGNSPVQEFTVPKQYHTATISGLKPGVDYTITVYAVTPSNIIGRHYGPISINYRTHHHHHH	1.3 1/M*s × 10^+6	3.3 1/s × 10^−4	68 °C					
353F10 (protein) VSDVPRDLEVVAATPTSLLISWPTHYKVARYYRITYGETGGNSPVQEFTVPKHTYTATISGLKPGVDYTITVYAVTTTKGLRHYGPISINYRTHHHHHH	3.7 1/M*s × 10^+6	2.1 1/s × 10^−4	59 °C					
218C04 (protein) VSDVPRDLEVVAATPTSLLISWSPYLRVARYYRITYGETGGNSPVQEFTVPSSARTATISGLKPGVDYTITVYAVTPSNIIGRHYGPISINYRT								Kd (human IGF-IR; clone in solution phase, immobilized IGF-IR): 1.8 nM; solution behaviour by SEC (monomer / aggregation) [2]: virtually all monomeric
385A08-PEG40: 385A08 (SEQ ID NO: 203) coupled via Cys97 to a mono-functional branched 40 kDa PEG (conjugate, branched 40 kDa PEG via Cys97) GVSDVPRDLEVVAATPTSLLISWSARLKVARYYRITYGETGGNSPVQEFTVPKNVYTATISGLKPGVDYTITVYAVTRFRDYQPISINYRTEIDKPCQ								off-rate (kd) relative to unmodified 385A08 (human IGF-IR): slightly increased; slower on-rate (ka) relative to unmodified 385A08 (human IGF-IR): approximately 10 fold; ka (human IGF-IR; Table 10, PEGylated variants): 0.6 1/M*s × 10^+6; kd (human IGF-IR; Table 10, PEGylated variants): 2.1 1/s × 10^−4; Outcome by (% TGI) (RH41 sarcoma xenografts; 40 mg/kg, TIWx3, 20 ip): A (A % TGI value of >50% was considered active); % TGI (RH41 sarcoma xenografts; 40 mg/kg, TIWx3, 20 ip): 56%; LCK (RH41 sarcoma xenografts; 40 mg/kg, TIWx3, 20 ip): 0.4
353H09 (protein) VSDVPRDLEVVAATPTSLLISWSDKLKVQRYYRITYGETGGNSPVQEFTVPKHDRTATISGLKPGVDYTITVYAVTKMRDYRPISINYRTHHHHHH	3.8 1/M*s × 10^+6	2.2 1/s × 10^−4	55 °C					% IR Binding at 10 μM (human insulin receptor; Table 5): 0%
386F10 (protein) VSDVPRDLEVVAATPTSLLISWSARLKVARYYRITYGETGGNSPVQEFTVPKNVYTATISGLKPGVDYTITVYAVTLLRDYGPISINYRTHHHHHH				1.9 1/M*s × 10^+6	2.3 1/s × 10^−4	58 °C	3%	
339A01 (protein) VSDVPRDLEVVAATPTSLLISWSTALKVQRYYRITYGETGGNSPVQEFTVPKHSHTATISGLKPGVDYTITVYAVTKMRDYRPISINYRTHHHHHH	1.2 1/M*s × 10^+6	6.7 1/s × 10^−4						
386A03 (protein) VSDVPRDLEVVAATPTSLLISWSARLKVARYYRITYGETGGNSPVQEFTVPKNVYTATISGLKPGVDYTITVYAVTNLRDYGPISINYRTHHHHHH				5.2 1/M*s × 10^+6	4.6 1/s × 10^−4	62 °C	3%	
385A08 (protein) VSDVPRDLEVVAATPTSLLISWSARLKVARYYRITYGETGGNSPVQEFTVPKNVYTATISGLKPGVDYTITVYAVTRFRDYQPISINYRTHHHHHH				5.7 1/M*s × 10^+6	1.9 1/s × 10^−4	59 °C	0%	ka (human IGF-IR; Table 10, PEGylated variants): 6.9 1/M*s × 10^+6; kd (human IGF-IR; Table 10, PEGylated variants): 1.6 1/s × 10^−4; AVE weight change (RH41 sarcoma xenografts; 20 mg/kg, 2qdx20, 28 ip): 0.6 g; % TGI (RH41 sarcoma xenografts; 20 mg/kg, 2qdx20, 28 ip): 33%; LCK (RH41 sarcoma xenografts; 20 mg/kg, 2qdx20, 28 ip): 0.2; AVE weight change (RH41 sarcoma xenografts; 40 mg/kg, 2qdx20, 28 ip): 1.0 g; % TGI (RH41 sarcoma xenografts; 40 mg/kg, 2qdx20, 28 ip): 19%; LCK (RH41 sarcoma xenografts; 40 mg/kg, 2qdx20, 28 ip): 0.2
387B01 (protein) VSDVPRDLEVVAATPTSLLISWSARLKVARYYRITYGETGGNSPVQEFTVPKNVYTATISGLKPGVDYTITVYAVTSLRDYGPISINYRTHHHHHH				6.5 1/M*s × 10^+6	4.4 1/s × 10^−4	63 °C	0%	
354A10 (protein) VSDVPRDLEVVAATPTSLLISWSNRLVVKRYYRITYGETGGNSPVQEFTVPHQMKTATISGLKPGVDYTITVYAVTPGGYSGRNYGPISINYRTHHHHHH	1.1 1/M*s × 10^+6	1.8 1/s × 10^−4	46 °C					
